Measurements as given in paper PMC5758712.

Tests used:
[1] = biological target: UbcH5B (Homo sapiens) (UniProt P62837); settings: cited from earlier work
[2] = biological target: UbcH7 (UniProt P68036); assay: ITC; E2 or E2~Ub in the cell at 25–30 μM, RBR in the syringe at 250–300 μM; 293 K; 25 mM Hepes pH 7.5, 150 mM NaCl, 0.5 mM TCEP; 1:1 binding model
[3] = biological target: UbcH7-Ub (UniProt P68036); assay: as above
[4] = biological target: UbcH5A-Ub (UniProt P51668); assay: as above

HOIP-Ring1, sequence (Q96EP0 whole entry, the tested form may be a part): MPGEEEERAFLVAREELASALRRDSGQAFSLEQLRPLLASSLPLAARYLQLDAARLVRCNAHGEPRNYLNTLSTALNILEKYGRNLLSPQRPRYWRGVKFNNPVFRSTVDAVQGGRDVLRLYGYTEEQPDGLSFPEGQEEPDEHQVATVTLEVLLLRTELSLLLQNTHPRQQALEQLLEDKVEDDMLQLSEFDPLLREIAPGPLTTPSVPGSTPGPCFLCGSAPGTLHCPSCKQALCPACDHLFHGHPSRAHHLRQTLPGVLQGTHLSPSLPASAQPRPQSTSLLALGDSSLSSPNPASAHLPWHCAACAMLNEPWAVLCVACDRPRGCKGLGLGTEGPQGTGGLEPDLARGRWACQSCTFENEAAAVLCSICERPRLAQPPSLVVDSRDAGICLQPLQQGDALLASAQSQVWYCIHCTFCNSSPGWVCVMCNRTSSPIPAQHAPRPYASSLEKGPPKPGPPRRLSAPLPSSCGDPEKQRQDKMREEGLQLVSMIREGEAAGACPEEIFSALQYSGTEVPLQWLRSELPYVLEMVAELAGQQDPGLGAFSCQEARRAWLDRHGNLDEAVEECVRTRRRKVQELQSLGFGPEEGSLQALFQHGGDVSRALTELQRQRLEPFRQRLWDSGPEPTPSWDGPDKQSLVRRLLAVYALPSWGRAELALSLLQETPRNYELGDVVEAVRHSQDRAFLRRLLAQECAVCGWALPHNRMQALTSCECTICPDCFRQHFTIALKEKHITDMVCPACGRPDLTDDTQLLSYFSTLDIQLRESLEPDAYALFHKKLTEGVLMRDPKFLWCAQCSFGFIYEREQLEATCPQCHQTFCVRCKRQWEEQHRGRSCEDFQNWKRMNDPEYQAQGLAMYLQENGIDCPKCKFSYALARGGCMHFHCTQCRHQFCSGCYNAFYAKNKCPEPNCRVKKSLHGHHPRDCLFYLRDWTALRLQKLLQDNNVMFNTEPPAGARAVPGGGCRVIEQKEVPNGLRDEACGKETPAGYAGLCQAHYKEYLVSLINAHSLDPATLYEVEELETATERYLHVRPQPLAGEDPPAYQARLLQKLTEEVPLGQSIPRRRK
HOIP-RBR, sequence (Q96EP0 whole entry, the tested form may be a part): as above
RNF144A-RBR, sequence (P50876 1-250): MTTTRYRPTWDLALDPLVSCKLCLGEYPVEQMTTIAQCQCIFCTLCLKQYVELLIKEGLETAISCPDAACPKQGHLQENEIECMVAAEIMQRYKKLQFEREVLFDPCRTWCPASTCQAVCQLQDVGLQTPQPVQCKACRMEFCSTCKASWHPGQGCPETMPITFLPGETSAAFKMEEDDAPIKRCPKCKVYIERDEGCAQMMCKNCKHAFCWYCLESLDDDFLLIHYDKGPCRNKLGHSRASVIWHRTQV
HHARI-RBR, sequence (Q9Y4X5 whole entry, the tested form may be a part): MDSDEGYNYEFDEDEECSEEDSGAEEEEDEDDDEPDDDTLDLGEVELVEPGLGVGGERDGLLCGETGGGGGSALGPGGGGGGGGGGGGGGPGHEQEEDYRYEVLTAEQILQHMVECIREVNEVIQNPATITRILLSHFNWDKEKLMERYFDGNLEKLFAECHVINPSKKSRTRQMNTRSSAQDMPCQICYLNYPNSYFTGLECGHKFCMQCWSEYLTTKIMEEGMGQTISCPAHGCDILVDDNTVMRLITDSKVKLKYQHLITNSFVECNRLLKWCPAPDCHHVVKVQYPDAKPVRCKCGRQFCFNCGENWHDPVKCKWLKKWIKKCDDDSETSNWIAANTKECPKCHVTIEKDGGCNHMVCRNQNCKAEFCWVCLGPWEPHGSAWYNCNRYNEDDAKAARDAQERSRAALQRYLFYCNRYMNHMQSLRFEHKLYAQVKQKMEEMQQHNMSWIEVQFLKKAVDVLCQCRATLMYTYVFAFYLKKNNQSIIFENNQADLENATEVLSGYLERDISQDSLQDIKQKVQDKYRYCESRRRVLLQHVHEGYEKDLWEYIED
HHARI-Ring1, sequence (Q9Y4X5 whole entry, the tested form may be a part): as above
RNF144A-Ring1, sequence (P50876 whole entry, the tested form may be a part): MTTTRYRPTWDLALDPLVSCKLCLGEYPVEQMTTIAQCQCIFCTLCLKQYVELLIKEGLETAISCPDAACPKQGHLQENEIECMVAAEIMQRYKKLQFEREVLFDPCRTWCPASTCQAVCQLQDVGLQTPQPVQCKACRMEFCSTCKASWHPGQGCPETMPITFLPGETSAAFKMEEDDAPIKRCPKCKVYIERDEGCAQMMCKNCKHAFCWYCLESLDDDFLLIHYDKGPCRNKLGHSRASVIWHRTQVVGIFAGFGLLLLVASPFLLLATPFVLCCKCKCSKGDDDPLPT
UbcH5B (Homo sapiens), sequence (P62837 whole entry): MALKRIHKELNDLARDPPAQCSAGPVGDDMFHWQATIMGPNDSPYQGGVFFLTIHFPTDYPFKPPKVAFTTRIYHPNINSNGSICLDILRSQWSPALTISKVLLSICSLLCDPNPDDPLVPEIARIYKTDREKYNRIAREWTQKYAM
HHARI, sequence (Q9Y4X5 whole entry): as the sequence (Q9Y4X5 whole entry, the tested form may be a part) above

Row | Substance | Kd [1] [µM] | Kd [2] [µM] | dH [2] [kcal/mol] | stoichiometry N [2] | Kd [3] [µM] | dH [3] [kcal/mol] | stoichiometry N [3] | Kd [4] [µM] | dH [4] [kcal/mol] | stoichiometry N [4]
1 | HHARI (from UniProt Q9Y4X5) | 20 | – | – | – | – | – | – | – | – | –
2 | RNF144A-Ring1 (from UniProt P50876 1-292) (domain or fragment) | – | 2.2 | 3.5 | 0.8 | 1 | 2.7 | 0.8 | > 50 | – | –
3 | HOIP-RBR (from UniProt Q96EP0 1-1072) (domain or fragment) | – | 2.3 | 0.8 | 0.8 | 0.9 | 0.8 | 0.9 | 4.3 | -8.2 | 0.9
4 | TRIAD3A-Ring1 (from UniProt Q9NWF9-2 1-866) (domain or fragment) | – | 3.2 | 4.5 | 0.8 | 4.3 | 3.6 | 0.8 | > 50 | – | –
5 | TRIAD3A-RBR (from UniProt Q9NWF9-2 510-801) (domain or fragment) | – | – | – | – | 2.4 | 3.7 | 0.9 | – | – | –
6 | HOIP-Ring1 (from UniProt Q96EP0 1-1072) (domain or fragment) | – | – | 1.4 | 1 | 4.3 | 1.1 | 0.9 | > 50 | – | –
7 | HHARI-Ring1 (from UniProt Q9Y4X5 1-557) (domain or fragment) | – | 0.21 | 4.2 | 0.8 | 0.12 | 3.9 | 0.8 | > 50 | – | –
8 | HHARI-RBR (from UniProt Q9Y4X5 1-557) (domain or fragment) | – | 0.41 | 1.8 | 0.9 | 0.2 | -2.3 | 0.9 | 4.5 | -3.7 | 0.8
9 | RNF144A-RBR (from UniProt P50876 1-250) (domain or fragment) | – | 1 | 1.7 | 0.9 | 0.52 | -0.9 | 0.8 | – | – | –
